Ten molecules from US20240316154A1 (Eli Lilly, published 2024) can be followed below.

Changes are numbered by the printed parent chain. Numbers in names are those of the source.

In one test the target is T1, Human serum albumin (human, UniProt P02768 25-609).
T1 construct: bought; immobilised on a CM5 chip by amine coupling; also called Human SA
Description: SPR, SA on chip, VHH 300 nM, 25 C.

Test [1] addresses T2, Cynomolgus monkey serum albumin (cynomolgus monkey, UniProt A2V9Z4 25-608).
T2 construct: bought; immobilised on a CM5 chip by amine coupling; also called Cyno SA
Description: SPR, SA on chip, VHH 300 nM, 25 C. (In general: Surface plasmon resonance follows binding to a sensor surface in real time, without labels.)
Description: (§1) Immobilization of SA to a Series S Sensor Chip CM5 surface is performed according to the manufacturer's instructions (amine coupling kit BR-1000-50). […] Human SA is obtained from Sigma Aldrich (St. Louis, MO; Cat. No. A8763). […] Mouse SA is obtained from Sigma Aldrich (Cat. No. A3559). Rat SA is obtained from Sigma Aldrich (Cat. No. A4538). Pig SA is obtained from Sigma Aldrich (Cat. No. A4414). […] Cow SA is obtained from Sigma Aldrich (Cat. No. A7030). The various SAs are covalently immobilized through free amines onto a carboxymethyl dextran-coated sensor chip CM5 targeting a surface density of average approximately 77 (58-98) RU. Excess reactive groups on the surfaces (flow cell 1 and 2) are deactivated by injecting 70 μL of 1 M ethanolamine hydrochloride-NaOH, pH 8.5, at 10 μL/min.
(§2) VHH moieties are diluted in HBS-EP+buffer (10 mM HEPES, pH 7.6, 150 mM NaCl, 3 mM EDTA, and 0.05% Polysorbate 20) at concentrations of 300 nM. 150 μL of sample is individually injected sequentially across the immobilized SAs surface and is dissociated for 600 sec at a flow rate of 50 L/min at 25 C. […] The resulting sensorgrams are analyzed using Biacore 8K Insight Evaluation Software (version 2.0.15.12933) to calculate the dissociation rate (kd).

Test [2] addresses T3, Mouse serum albumin (mouse, UniProt P07724 25-608).
T3 construct: bought; immobilised on a CM5 chip by amine coupling; also called Mouse SA
Description: SPR, SA on chip, VHH 300 nM, 25 C.
Description: as §1, §2

Test [3] addresses T4, Rat serum albumin (rat, UniProt P02770 25-608).
T4 construct: bought; immobilised on a CM5 chip by amine coupling; also called Rat SA
As to the kind of experiment: SPR, SA on chip, VHH 300 nM, 25 C.
Description: as §1, §2

The target of test [4] is T5, Pig serum albumin (pig, UniProt P08835 25-607).
T5 construct: bought; immobilised on a CM5 chip by amine coupling; also called Pig SA
As to the kind of experiment: SPR, SA on chip, VHH 300 nM, 25 C.
Description: as §1, §2

The next test addresses T6, Dog serum albumin (dog, UniProt P49822 25-608).
T6 construct: bought; immobilised on a CM5 chip by amine coupling; also called Dog SA
Description: SPR, SA on chip, VHH 300 nM, 25 C.

Test [5] concerns the target T3, Mouse serum albumin. Description: SPR, SA on chip, 25 C.
Test [6] addresses T4, Rat serum albumin. Description: SPR, SA on chip, 25 C.
Test [7] deals with T5, Pig serum albumin. Description: SPR, SA on chip, 25 C.
The next test concerns the target T7, Cow serum albumin (cow, UniProt P02769 25-607).
T7 construct: bought; immobilised on a CM5 chip by amine coupling; also called Cow SA
Description: SPR, SA on chip, 25 C.

Description for Dog serum albumin: as §1, §2
Description for Human serum albumin: as §1, §2

B1: VHH moiety 4 (MC6.1C80.43) (VHH)
VHH: EVQLLESGGGLVQPGGSLRLSCAASGRYIDETAVAWFRQAPGKGREFVAGIGGGVDITYYADSVKGRFTISRDNSKNTLYLQMNSLRPEDTAVYYCAARPGRPLITSKVADLYPYWGQGTLVTVSS
As usually defined, the koff is the first-order rate constant of dissociation. For B1, the dissociation rate constant (koff) with Human serum albumin is 0.00021 s⁻¹; in test [1], 0.00053 s⁻¹; in the test with Mouse serum albumin [2], 0.0043 s⁻¹; with Rat serum albumin [3], 0.0033 s⁻¹; with Pig serum albumin [4], 0.0057 s⁻¹; in the test with Dog serum albumin it was 0.0017 s⁻¹.

B2: VHH moiety 16 (MC6.1C22-Y59T) (VHH)
VHH: B1 VHH with G44E, Y59T
As for B2, the binding result with Mouse serum albumin [5], with Rat serum albumin [6], with Pig serum albumin [7] and in the test with Cow serum albumin was “no binding (tested: 300 nM)” in each case. Moreover, the koff was 0.0039 s⁻¹ with Human serum albumin and 0.015 s⁻¹ in test [1].

B3: VHH moiety 9 (MC6.1C22-R27A) (VHH)
VHH: B1 VHH with R27A, G44E
For the molecule B3, the koff with Human serum albumin is 0.0012 s⁻¹; in test [1], 0.0032 s⁻¹; with Mouse serum albumin [2], 0.013 s⁻¹; with Rat serum albumin [3] it was 0.011 s⁻¹; in the test with Pig serum albumin [4] it was 0.012 s⁻¹; with Dog serum albumin, 0.011 s⁻¹.

B4: VHH moiety 39 (MC6.1C90.43) (VHH)
VHH: B1 VHH with A97G
As to B4, the koff stood at 9.4e-05 s⁻¹ with Human serum albumin; 0.0006 s⁻¹ in [1]; 0.0056 s⁻¹ with Mouse serum albumin [2]; 0.0038 s⁻¹ with Rat serum albumin [3]; 0.0065 s⁻¹ in the test with Pig serum albumin [4]; 0.0021 s⁻¹ with Dog serum albumin.

B5: VHH moiety 19 (MC6.1C22-R102S) (VHH)
VHH: B1 VHH with G44E, R102S
For B5, in the test with Cow serum albumin, the binding result is given as “no binding (tested: 300 nM)”. Besides, the koff with Human serum albumin was 0.0045 s⁻¹; in test [1], 0.0073 s⁻¹; with Mouse serum albumin [2] it was 0.015 s⁻¹; with Rat serum albumin [3], 0.015 s⁻¹; with Pig serum albumin [4], 0.014 s⁻¹; with Dog serum albumin, 0.014 s⁻¹.

B6: VHH moiety 18 (MC6.1C22-R102Q) (VHH)
VHH: B1 VHH with G44E, R102Q
In the case of B6, the binding result in the test with Cow serum albumin was “no binding (tested: 300 nM)”. For the same molecule, the koff stood at 0.0076 s⁻¹ with Human serum albumin, 0.0072 s⁻¹ in test [1], 0.014 s⁻¹ in the test with Rat serum albumin [3] and 0.015 s⁻¹ in the test with Dog serum albumin.

B7: VHH moiety 40 (MC6.1C95.43) (VHH)
VHH: B1 VHH with A97G, A98T
In the case of B7, the koff came out at 0.00014 s⁻¹ with Human serum albumin; 0.00072 s⁻¹ in [1]; 0.0054 s⁻¹ with Mouse serum albumin [2]; 0.0053 s⁻¹ in the test with Rat serum albumin [3]; 0.0058 s⁻¹ with Pig serum albumin [4]; 0.0021 s⁻¹ with Dog serum albumin.

B8: VHH moiety 10 (MC6.1C22-157E) (VHH)
VHH: B1 VHH with G44E, I57E
notes: name printed as 157E
As for B8, in the test with Cow serum albumin, the binding result is on record as “no binding (tested: 300 nM)”.

B9: VHH moiety 22 (MC6.1C22-P103S) (VHH)
VHH: B1 VHH with G44E, P103S
For B9, the koff stood at 0.0028 s⁻¹ in the test with Human serum albumin; 0.014 s⁻¹ in test [1]; 0.01 s⁻¹ with Mouse serum albumin [2]; 0.01 s⁻¹ with Rat serum albumin [3]; 0.011 s⁻¹ with Pig serum albumin [4]; 0.0074 s⁻¹ in the test with Dog serum albumin.

B10: VHH moiety 21 (MC6.1C22-P103Q) (VHH)
VHH: B1 VHH with G44E, P103Q
Consider B10, for which the koff with Human serum albumin was found to be 0.0025 s⁻¹; in test [1] it was 0.014 s⁻¹; with Mouse serum albumin [2], 0.013 s⁻¹; with Rat serum albumin [3] it was 0.011 s⁻¹; with Pig serum albumin [4], 0.01 s⁻¹; with Dog serum albumin it was 0.0081 s⁻¹.
